Experimental data taken from patent publication US20140157444A1 (COUNCIL OF SCIENTIFIC AND INDUSTRIAL RESEARCH, published 2014).

How the values were obtained:
hHDAC4-FLAG = molecular target: T1, hHDAC4-FLAG (human, UniProt P56524 1-1084, limits assumed); assay: co-immunoprecipitation from co-transfected HEK 293 cells: anti-FLAG IP, anti-Myc blot
T1 construct: Species is read from the prefix 'h' of the plasmid name; also called pCMX-hHDAC4-FLAG; not shown: FLAG tag
Description: (§1) FIG. 10. Identification of proteins interacting with WDR13. […] B) Immunolocalization of WDR13 protein in HELA cells transfected with pCMV-FLAG-Wdr13 (SEQ ID NO: 3) vector using anti FLAG antibody. C) Silver stained gel of immunoprecipitated proteins using anti FLAG antibody from HELA cells transfected with pCMV-FLAG control and pCMV-FLAG-Wdr13 vectors having SEQ ID NO: 3.
(§2) FIG. 11. Interactions of WDR13 with ERs, HDACs and PHIP1 A) HEK 293 cells were co-transfected with FLAG-Wdr13 (from the position 922 to 2443 in SEQ ID NO: 3) and GFP-ERα, grown in the presence or absence of estradiol. The cell lysate was immunoprecipitated with anti FLAG antibody and immunoblotted with anti GFP antibody. […] B) HEK 293 cells were co-transfected with FLAG-Wdr13 (from the position 922 to 2443 in SEQ ID NO: 3) and Myc-ERβ I (from the position 900-2673 in SEQ ID NO: 6), grown in the presence or absence of estradiol. The cell lysate was immunoprecipitated with anti FLAG antibody and immunoblotted with anti Myc antibody. […] C) HEK 293 cells were co-transfected with Myc-Wdr13 (from the position 900 to 2448 in SEQ ID NO: 4)/various FLAG-HDACs and the cell lysate was immunoprecipitated with anti FLAG antibody and immunoblotted with anti Myc antibody.

mHDAC2-FLAG = molecular target: T2, mHDAC2-FLAG (mouse, UniProt P70288 1-488); assay: as above
T2 construct: Species is read from the prefix 'm' of the plasmid name; also called pCMX-mHDAC2-FLAG; not shown: FLAG tag
T2 sequence (P70288 whole entry): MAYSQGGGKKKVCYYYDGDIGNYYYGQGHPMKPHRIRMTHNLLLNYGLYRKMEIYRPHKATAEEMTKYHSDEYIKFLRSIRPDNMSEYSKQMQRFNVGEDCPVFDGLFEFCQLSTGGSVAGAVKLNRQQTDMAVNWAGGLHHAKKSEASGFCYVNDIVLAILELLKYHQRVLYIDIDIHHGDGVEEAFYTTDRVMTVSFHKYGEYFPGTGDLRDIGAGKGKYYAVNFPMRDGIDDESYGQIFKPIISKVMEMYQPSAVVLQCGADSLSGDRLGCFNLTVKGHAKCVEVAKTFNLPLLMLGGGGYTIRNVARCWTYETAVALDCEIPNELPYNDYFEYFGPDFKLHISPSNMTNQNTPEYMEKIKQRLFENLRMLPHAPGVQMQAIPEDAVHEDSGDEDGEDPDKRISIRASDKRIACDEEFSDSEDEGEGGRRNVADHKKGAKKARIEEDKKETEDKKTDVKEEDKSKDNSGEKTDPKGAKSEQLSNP
Description: as §1, §2

T1 sequence (P56524 whole entry): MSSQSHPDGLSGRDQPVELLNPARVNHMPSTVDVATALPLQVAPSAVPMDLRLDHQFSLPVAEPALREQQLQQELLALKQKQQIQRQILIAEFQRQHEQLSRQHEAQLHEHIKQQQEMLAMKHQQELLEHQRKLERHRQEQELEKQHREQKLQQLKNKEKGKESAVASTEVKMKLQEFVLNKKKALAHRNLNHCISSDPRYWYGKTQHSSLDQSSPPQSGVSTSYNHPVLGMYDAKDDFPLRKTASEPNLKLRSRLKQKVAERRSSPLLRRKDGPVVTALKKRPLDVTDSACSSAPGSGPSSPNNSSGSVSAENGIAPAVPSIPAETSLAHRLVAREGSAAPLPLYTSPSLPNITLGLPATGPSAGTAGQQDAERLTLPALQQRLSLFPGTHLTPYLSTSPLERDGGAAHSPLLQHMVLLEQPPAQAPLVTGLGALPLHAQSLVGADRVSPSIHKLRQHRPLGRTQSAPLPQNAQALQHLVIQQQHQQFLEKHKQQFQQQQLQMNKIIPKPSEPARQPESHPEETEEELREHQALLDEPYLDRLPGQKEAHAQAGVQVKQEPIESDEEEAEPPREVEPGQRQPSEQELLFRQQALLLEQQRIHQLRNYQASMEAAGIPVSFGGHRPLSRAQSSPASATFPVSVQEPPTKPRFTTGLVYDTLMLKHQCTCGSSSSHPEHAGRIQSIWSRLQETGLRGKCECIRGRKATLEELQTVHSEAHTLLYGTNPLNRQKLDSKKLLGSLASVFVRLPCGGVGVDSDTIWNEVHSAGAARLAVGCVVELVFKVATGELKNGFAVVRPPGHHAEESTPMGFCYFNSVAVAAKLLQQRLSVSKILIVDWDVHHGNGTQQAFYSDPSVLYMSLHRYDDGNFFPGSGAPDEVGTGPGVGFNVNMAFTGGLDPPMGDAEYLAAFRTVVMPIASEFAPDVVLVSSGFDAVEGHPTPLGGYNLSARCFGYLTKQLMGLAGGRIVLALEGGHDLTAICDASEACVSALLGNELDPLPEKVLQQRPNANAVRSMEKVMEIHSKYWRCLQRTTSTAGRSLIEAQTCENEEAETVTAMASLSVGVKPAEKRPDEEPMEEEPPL

binding result (hHDAC4-FLAG): no binding | binding result (mHDAC2-FLAG): no binding
B1: Myc WDR13 fusion protein (other, mouse, UniProt Q91V09 1-485, looked up)
chain: MAAVWQQVLAVDARYNAYRTPTFPQFRTQYIRRRSQLLRENAKAGHPPALRRQYLRLRGQLLGQRYGPLSEPGSARAYSNSIVRSSRTTLDRMEDFEDDPRALGARGHRRSVSRGSYQLQAQMNRAVYEDRPPGSVVPTSVAEASRAMAGDTSLSENYAFAGMYHVFDQHVDEAVPRVRFANDDRHRLACCSLDGSISLCQLVPAPPTVLHVLRGHTRGVSDFAWSLSNDILVSTSLDATMRIWASEDGRCIREIPDPDGAELLCCTFQPVNNNLTVVGNAKHNVHVMNISTGKKVKGGSSKLTGRVLALSFDAPGRLLWAGDDRGSVFSFLFDMATGKLTKAKRLVVHEGSPVTSISARSWVSREARDPSLLINACLNKLLLYRVVDNEGALQLKRSFPIEQSSHPVRSIFCPLMSFRQGACVVTGSEDMCVHFFDVERAAKAAVNKLQGHSAPVLDVSFNCDESLLASSDASGMVIVWRREQK
notes: Overexpressed in HEK 293 cells; (mouse gene); also called pCMV-Myc-Wdr13; not shown: Myc peptide at the N-terminus, from the pCMV-Myc vector
